Where two headings read alike, the source gives them in different places.
Columns and labels:
[1] = molecular target: T1, wild-type CBX1 chromodomain (human, UniProt P83916 20-73); test: fluorescence polarisation
CBX1 chromodomain F50A = CBX1 chromodomain F50A (human, UniProt P83916 20-73, F50A); test: fluorescence polarisation
[2] = molecular target: T1, wild-type CBX1 chromodomain

CBX1 chromodomain F50A, sequence (P83916 20-73 F45A): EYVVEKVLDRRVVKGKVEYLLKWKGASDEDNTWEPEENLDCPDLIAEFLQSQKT
T1 sequence (P83916 20-73): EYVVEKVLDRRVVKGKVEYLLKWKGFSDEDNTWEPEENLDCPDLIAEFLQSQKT

| Kd (CBX1 chromodomain F50A) [µM] | Binder | also measured |
| --- | --- | --- |
|  | ARTKQTARKSTGGKA (allyl-lysine at 9; tetramethylrhodamine (TAMRA) label, position not stated) [TAMRA-labeled allyl-modified H3K9 peptide] | Kd [1]: 106 ± 20 µM |
| 63.5 ± 6.2 | ARTKQTARKSTGGKA (trimethyl-lysine at 9; tetramethylrhodamine (TAMRA) label, position not stated) [TAMRA-labeled H3K9me3 peptide] |  |
|  | ARTKQTARKSTGGKA (dimethyl-lysine at 9) [H3K9me2 peptide] | Kd [2]: 18.3 µM |
| 14.1 ± 2.8 | ARTKQTARKSTGGKA (pentenyl-lysine at 9; tetramethylrhodamine (TAMRA) label, position not stated) [TAMRA-labeled pentenyl-modified H3K9 peptide] |  |

Source: PMC6988089 (Journal of the American Chemical Society, 2019)
